Test results: patent US20110059889A1 (SYNTONIX PHARMACEUTICALS, published 2011)
Like-named read-outs stand apart in the source and are kept apart here. Bridge positions count the residues as written; N and C are the ends. Square brackets hold non-standard residues; d marks the D form. Ends that are not written are not given here. NMeL = CN[C@@H](CC(C)C)C(=O)O; Pen = CC(C)(S)[C@H](N)C(=O)O; Sar = CNCC(=O)O

Experiments:
[1] = target: T1, soluble human FcRn (shFcRn) (human, UniProt P55899 24-297; P61769 21-119); assay: SPR pH 7.4
T1 construct: Biotinylated for the ELISA, amine-coupled to a CM5 chip for SPR; also called biotinylated shFcRn
T1 sequence (P55899 24-297 limits assumed, chain 1 of 2): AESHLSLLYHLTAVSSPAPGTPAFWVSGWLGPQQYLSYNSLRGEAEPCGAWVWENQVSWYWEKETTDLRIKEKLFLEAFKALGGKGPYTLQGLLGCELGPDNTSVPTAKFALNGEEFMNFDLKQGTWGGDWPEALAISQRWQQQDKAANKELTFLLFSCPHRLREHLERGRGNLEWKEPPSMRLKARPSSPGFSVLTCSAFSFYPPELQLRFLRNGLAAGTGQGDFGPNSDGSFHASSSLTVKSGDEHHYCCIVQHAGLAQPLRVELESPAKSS
T1 sequence (P61769 21-119 limits assumed, chain 2 of 2): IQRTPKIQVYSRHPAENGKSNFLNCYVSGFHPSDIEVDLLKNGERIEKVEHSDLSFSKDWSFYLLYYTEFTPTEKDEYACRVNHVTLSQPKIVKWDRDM
Description: (§1) The following steps were performed to cross-link soluble human or cynomolgus FcRn to the dextran surface of a CM5 sensor chip (Biacore AB, Uppsala, Sweden) by an amine coupling reaction involving 1-ethyl-(3-dimethylaminopropyl)-carbodiimide hydrochloride (EDC) (Biacore AB, Uppsala, Sweden) and N-hydroxysuccinimide (NHS) (Biacore AB, Uppsala, Sweden) as recommended by Biacore (BIAapplications Handbook, version AB, section 4.2, Biacore AB, Uppsala, Sweden). […] Residual sites on the FcRn flow cell were blocked with 1 M ethanolamine hydrochloride pH 8.5 (Biacore AB, Uppsala, Sweden). A control flow cell was blocked with ethanolamine for reference subtraction. For analysis of the monomeric peptides, FcRn was coated to a final density of 4000-5000 response units (RU). For analysis of the peptide dimers, FcRn was coated to a density of 2000-2500 RU. All SPR measurements were performed using a BIACORE 3000 Instrument (Biacore AB Uppsala, Sweden). For measurements done at either pH 6 or pH 7.4, experiments were performed in 50 mM phosphate, 100 mM sodium chloride, 0.01% surfactant P20 (Biacore AB, Uppsala, Sweden).
(§2) Ten, 2-fold dilutions of the peptide were injected over the FcRn-CM5 chip at a rate of 20 μl/min for 2 min. The peptide was dissociated from the chip for 2.5 minutes with buffer. […] Sensorgrams were generated and analyzed using BiaEval software version 3.1 (Biacore AB, Uppsala, Sweden). […]

[2] = target: T1, soluble human FcRn (shFcRn); assay: SPR pH 6
Description: as §1
(§3) Ten, 2-fold dilutions of the peptide were injected over the FcRn-CM5 chip at a rate of 20 μl/min for 2 min. The peptide was dissociated from the chip for 2.5 minutes with buffer. Any remaining peptide was removed from the chip with a 30 second injection of HBS-P buffer (Biacore AB, Uppsala, Sweden) at a rate of 30 μl/min. Sensorgrams were generated and analyzed using BiaEval software version 3.1 (Biacore AB, Uppsala, Sweden). The equilibrium RU observed for each injection was plotted against concentration. The equilibrium KD values were derived by analysis of the plots using the steady state affinity model included in the BiaEval software.

[3] = target: T1, soluble human FcRn (shFcRn); assay: SPR pH 6; remark: listed apart in the source
Description: as §1, §3

[4] = target: T1, soluble human FcRn (shFcRn); assay: SPR pH 6; remark: listed apart in the source
Description: as §1, §2

[5] = target: T1, soluble human FcRn (shFcRn); assay: SPR pH 6; remark: listed apart in the source
Description: as §1, §3

[6] = target: T1, soluble human FcRn (shFcRn); assay: SPR pH 6; remark: listed apart in the source
Description: as §1, §2

[7] = target: T1, soluble human FcRn (shFcRn); assay: SPR pH 6; remark: listed apart in the source
Description: as §1, §3

[8] = target: T1, soluble human FcRn (shFcRn); assay: SPR pH 6; remark: listed apart in the source
Description: as §1, §3

[9] = target: T1, soluble human FcRn (shFcRn); assay: SPR pH 6; remark: listed apart in the source
Description: as §1, §2

[10] = target: T1, soluble human FcRn (shFcRn); assay: SPR pH 6; remark: listed apart in the source
[11] = target: T1, soluble human FcRn (shFcRn); assay: SPR pH 6; remark: listed apart in the source
Description: as §1, §2

[12] = target: T1, soluble human FcRn (shFcRn); assay: SPR pH 6; remark: listed apart in the source
Description: as §1, §3

[13] = target: T1, soluble human FcRn (shFcRn); assay: IgG competition ELISA
Description: (§4) The wells were coated with 100 μl/well of 1 μg/ml biotinylated-shFcRn in Buffer A. The plate was sealed and incubated at 37° C. for 2 hours. Afterwards, the plate was washed with 200 μl/well of Buffer B (Buffer B: 100 mM MES pH 6, 150 mM NaCl, 0.5% BSA IgG-free (Jackson ImmunoResearch, West Grove, Pa.), 0.05% Tween-20). […] To allow for mixing, the plate was rocked for 2 minutes, sealed and incubated at 37° C. for 2 hours. […] The plate was covered, incubated for 30 minutes at room temperature and washed 4 times with 200 μl/well of ice-cold buffer B. SureBlue TMB substrate solution (100 μl/well, KPL, Gaithersburg, Md.) was added and the plate was allowed to incubate at room temperature until color developed, which took 5 to 10 minutes. Once color developed, 100 μl/well of TMB stop solution (KPL, Gaithersburg, Md.) was added and the absorbance was measured at 450 nm. The data was plotted as absorbance vs. peptide concentration to derive the inhibitory concentration 50% (IC₅₀) values.

[14] = target: T1, soluble human FcRn (shFcRn); assay: IgG competition ELISA; remark: listed apart in the source
Description: as §4

[15] = target: T1, soluble human FcRn (shFcRn); assay: IgG competition ELISA; remark: listed apart in the source
Description: as §4

[16] = target: T1, soluble human FcRn (shFcRn); assay: IgG competition ELISA; remark: listed apart in the source
Description: as §4

[17] = target: T1, soluble human FcRn (shFcRn); assay: IgG competition ELISA; remark: listed apart in the source
Description: as §4

[18] = target: T1, soluble human FcRn (shFcRn); assay: IgG competition ELISA; remark: listed apart in the source
Description: as §4

[19] = target: T1, soluble human FcRn (shFcRn); assay: IgG competition ELISA; remark: listed apart in the source
[20] = target: T1, soluble human FcRn (shFcRn); assay: IgG competition ELISA; remark: listed apart in the source
[21] = target: T1, soluble human FcRn (shFcRn); assay: IgG competition ELISA; remark: listed apart in the source
Description: as §4

[22] = target: T1, soluble human FcRn (shFcRn); assay: IgG competition ELISA; remark: listed apart in the source
Description: as §4

[23] = target: T1, soluble human FcRn (shFcRn); assay: IgG competition ELISA; remark: listed apart in the source
Description: as §4

[24] = target: T1, soluble human FcRn (shFcRn); assay: SPR pH 6; 3PyridylAla in place of His
Description: as §1, §2

[25] = target: T1, soluble human FcRn (shFcRn); assay: SPR pH 7.4; 3PyridylAla in place of His
Description: as §1, §2

[26] = target: T1, soluble human FcRn (shFcRn); assay: SPR pH 6; ThienylAla in place of His
Description: as §1, §2

[27] = target: T1, soluble human FcRn (shFcRn); assay: SPR pH 7.4; ThienylAla in place of His
Description: as §1, §2

[28] = target: T1, soluble human FcRn (shFcRn); assay: SPR pH 6; Orn in place of His
Description: as §1, §2

[29] = target: T1, soluble human FcRn (shFcRn); assay: SPR pH 6; 2-PyrrolidinylAla in place of His
Description: as §1, §2

[30] = target: T1, soluble human FcRn (shFcRn); assay: SPR pH 6; 4-PiperidylAla in place of His
Description: as §1, §2

[31] = target: T1, soluble human FcRn (shFcRn); assay: SPR pH 7.4; 4-PiperidylAla in place of His
Description: as §1, §2

[32] = target: T1, soluble human FcRn (shFcRn); assay: SPR pH 6; 4-PyridylAla in place of His
Description: as §1, §2

[33] = target: T1, soluble human FcRn (shFcRn); assay: SPR pH 7.4; 4-PyridylAla in place of His
Description: as §1, §2

[34] = target: T1, soluble human FcRn (shFcRn); assay: IgG competition ELISA; remark: listed apart in the source
Description: as §4

[35] = target: T1, soluble human FcRn (shFcRn); assay: IgG competition ELISA; remark: listed apart in the source
Description: as §4

[36] = target: T1, soluble human FcRn (shFcRn); assay: SPR pH 6; Peptide No. 31: lower-case c at both Cys (QRF-c-…-c-NGP)
Description: as §1, §2

B1: Peptide No. 24 (peptide)
peptide: QRFCTGHF[dA][dA]LYPCNGP-NH2
modifications: disulfide 4-14; N-terminus assumed
SMILES: CC(C)C[C@@H]1NC(=O)[C@@H](C)NC(=O)[C@@H](C)NC(=O)[C@H](Cc2ccccc2)NC(=O)[C@H](Cc2c[nH]cn2)NC(=O)CNC(=O)[C@H]([C@@H](C)O)NC(=O)[C@@H](NC(=O)[C@H](Cc2ccccc2)NC(=O)[C@H](CCCNC(=N)N)NC(=O)[C@@H](N)CCC(N)=O)CSSC[C@@H](C(=O)N[C@@H](CC(N)=O)C(=O)NCC(=O)N2CCC[C@H]2C(N)=O)NC(=O)[C@@H]2CCCN2C(=O)[C@H](Cc2ccc(O)cc2)NC1=O
[1]
  Kd: > 250000 nM

B2: Peptide No. 32 (peptide)
peptide: QRF[Pen]TGHFGGLYPCNGP-NH2
modifications: disulfide 4-14; N-terminus assumed
SMILES: CC(C)C[C@@H]1NC(=O)CNC(=O)CNC(=O)[C@H](Cc2ccccc2)NC(=O)[C@H](Cc2c[nH]cn2)NC(=O)CNC(=O)[C@H]([C@@H](C)O)NC(=O)[C@@H](NC(=O)[C@H](Cc2ccccc2)NC(=O)[C@H](CCCNC(=N)N)NC(=O)[C@@H](N)CCC(N)=O)C(C)(C)SSC[C@@H](C(=O)N[C@@H](CC(N)=O)C(=O)NCC(=O)N2CCC[C@H]2C(N)=O)NC(=O)[C@@H]2CCCN2C(=O)[C@H](Cc2ccc(O)cc2)NC1=O
[2]
  Kd: 250 nM
[3]
  Kd: 250 nM
[4]
  Kd: 250 nM
[5]
  Kd: 250 nM
[6]
  Kd: 250 nM
[7]
  Kd: 250 nM
[8]
  Kd: 250 nM
[9]
  Kd: 250 nM
[10]
  Kd: 250 nM
[11]
  Kd: 250 nM
[12]
  Kd: 250 nM
[13]
  IC50: 2000 nM
[14]
  IC50: 2000 nM
[15]
  IC50: 2000 nM
[16]
  IC50: 2000 nM
[17]
  IC50: 2000 nM
[18]
  IC50: 2000 nM
[19]
  IC50: 2000 nM
[20]
  IC50: 2000 nM
[21]
  IC50: 2000 nM
[22]
  IC50: 2000 nM
[23]
  IC50: 2000 nM

## RFCTGXFGGLYPC (Pen 3; 3PyridylAla 6; Sar 9; NMeL 10; disulfide 3-13; C-terminal amide) [Peptide No. 250]
[23]
  IC50: 1200 nM
[24]
  Kd: 64 nM
[25]
  Kd: 260 nM

## RFCTGXFGGLYPC (Pen 3; ThienylAla 6; Sar 9; NMeL 10; disulfide 3-13; C-terminal amide) [Peptide No. 251]
[23]
  IC50: 45000 nM
[26]
  Kd: 2000 nM
[27]
  Kd: 3000 nM

## RFCTGXFGGLYPC (Pen 3; Orn 6; Sar 9; NMeL 10; disulfide 3-13; C-terminal amide) [Peptide No. 254]
[28]
  Kd: 1300 nM

## RFCTGXFGGLYPC (Pen 3; 2-PyrrolidinylAla 6; Sar 9; NMeLeu 10; disulfide 3-13; C-terminal amide) [Peptide No. 262]
[29]
  Kd: 8400 nM

## RFCTGXFGGLYPC (Pen 3; 4-PiperidylAla 6; Sar 9; NMeLeu 10; disulfide 3-13; C-terminal amide) [Peptide No. 264]
[23]
  IC50: 85000 nM
[30]
  Kd: 5200 nM
[31]
  Kd: 6400 nM

## RFCTGXFGGLYPC (Pen 3; 4-PyridylAla 6; Sar 9; NMeLeu 10; disulfide 3-13; C-terminal amide) [Peptide No. 268]
[23]
  IC50: 1300 nM
[32]
  Kd: 67 nM
[33]
  Kd: 280 nM

## QRFVTGHFG[dP]LYPVNGP-NH2 [Peptide No. 167]
[34]
  IC50: 93000 nM

B3: Peptide No. 289 (peptide)
peptide: RF[Pen]TGHFG[Sar][NMeL]YPC-NH2
modifications: disulfide 3-13; also: dimer: N-termini joined by an Asp linker carrying PEG 30 kDa, further groups not given here
notes: site of PEG only in drawing CHEM-US-00136; also called Pegylated Analog of Peptide No. 285
[35]
  IC50: 18 nM

B4: Peptide No. 31 (peptide)
peptide: QRF[dC]TGHFGGLYP[dC]NGP-NH2
modifications: disulfide 4-14; N-terminus assumed
SMILES: CC(C)C[C@@H]1NC(=O)CNC(=O)CNC(=O)[C@H](Cc2ccccc2)NC(=O)[C@H](Cc2c[nH]cn2)NC(=O)CNC(=O)[C@H]([C@@H](C)O)NC(=O)[C@H](NC(=O)[C@H](Cc2ccccc2)NC(=O)[C@H](CCCNC(=N)N)NC(=O)[C@@H](N)CCC(N)=O)CSSC[C@H](C(=O)N[C@@H](CC(N)=O)C(=O)NCC(=O)N2CCC[C@H]2C(N)=O)NC(=O)[C@@H]2CCCN2C(=O)[C@H](Cc2ccc(O)cc2)NC1=O
[13]
  IC50: > 500000 nM
[36]
  Kd: 200000 nM
